The results in this text go back to patent US20240383984A1 (Genentech, published 2024).

The target of test [1] is T1, human FcRH3 (BIACORE analyte) (human, UniProt Q96P31 18-573, limits assumed).
T1 construct: also called huFcRH3
T1 sequence (looked up): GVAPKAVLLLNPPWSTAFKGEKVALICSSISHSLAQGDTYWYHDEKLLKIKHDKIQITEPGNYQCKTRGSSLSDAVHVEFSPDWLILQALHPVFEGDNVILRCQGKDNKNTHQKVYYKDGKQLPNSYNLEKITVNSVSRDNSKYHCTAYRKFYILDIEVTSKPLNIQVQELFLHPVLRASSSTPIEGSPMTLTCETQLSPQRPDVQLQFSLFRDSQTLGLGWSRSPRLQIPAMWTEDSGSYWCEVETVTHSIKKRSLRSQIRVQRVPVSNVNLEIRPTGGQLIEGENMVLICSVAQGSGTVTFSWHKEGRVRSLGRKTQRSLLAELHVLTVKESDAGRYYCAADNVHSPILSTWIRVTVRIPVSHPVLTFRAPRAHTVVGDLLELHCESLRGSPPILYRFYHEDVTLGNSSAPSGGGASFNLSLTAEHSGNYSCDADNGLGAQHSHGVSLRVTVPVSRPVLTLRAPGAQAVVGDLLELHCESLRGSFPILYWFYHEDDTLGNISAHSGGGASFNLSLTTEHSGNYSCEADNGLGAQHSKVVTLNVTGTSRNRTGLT
The test is described as follows: SPR (BIACORE), TDB captured as ligand, FcRH3 as analyte, 25 °C, 1:1 binding model.

The target of test [2] is T2, cynomolgus FcRH5 protein fragment (soluble) (cynomolgus monkey).
T2 construct: whole entry named; also called Cyno FcRH5 (BIACORE analyte)
T2 chain: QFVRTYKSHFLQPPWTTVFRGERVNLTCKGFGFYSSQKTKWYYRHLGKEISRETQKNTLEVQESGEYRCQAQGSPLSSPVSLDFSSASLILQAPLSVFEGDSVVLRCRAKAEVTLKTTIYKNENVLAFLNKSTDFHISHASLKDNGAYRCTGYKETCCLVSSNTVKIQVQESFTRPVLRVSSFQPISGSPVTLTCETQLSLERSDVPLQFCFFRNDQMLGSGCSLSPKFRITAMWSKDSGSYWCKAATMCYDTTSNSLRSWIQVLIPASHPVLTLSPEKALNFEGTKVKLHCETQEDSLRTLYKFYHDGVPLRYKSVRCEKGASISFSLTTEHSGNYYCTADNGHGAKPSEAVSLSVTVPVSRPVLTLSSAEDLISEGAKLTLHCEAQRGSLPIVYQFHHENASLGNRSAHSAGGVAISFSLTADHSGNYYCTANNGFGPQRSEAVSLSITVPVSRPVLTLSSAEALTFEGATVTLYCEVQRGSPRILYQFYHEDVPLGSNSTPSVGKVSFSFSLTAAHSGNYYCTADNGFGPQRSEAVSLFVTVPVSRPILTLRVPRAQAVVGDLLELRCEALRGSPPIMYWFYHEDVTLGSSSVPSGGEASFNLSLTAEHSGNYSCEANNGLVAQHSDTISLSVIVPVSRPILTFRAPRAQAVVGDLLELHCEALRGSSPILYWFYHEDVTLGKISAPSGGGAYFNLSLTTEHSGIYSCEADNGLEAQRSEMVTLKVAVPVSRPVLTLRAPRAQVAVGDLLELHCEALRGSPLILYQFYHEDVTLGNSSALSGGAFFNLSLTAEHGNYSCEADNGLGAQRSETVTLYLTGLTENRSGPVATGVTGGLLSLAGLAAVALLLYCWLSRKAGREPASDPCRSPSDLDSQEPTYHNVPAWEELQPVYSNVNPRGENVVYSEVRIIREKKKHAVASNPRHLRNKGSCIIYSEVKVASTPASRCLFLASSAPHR
The test is described as follows: SPR (BIACORE), Cyno FcRH5, 1:1 binding model.

The target in test [3] is T3, human FcRH5 protein fragment (soluble) (human, UniProt Q96RD9 16-851).
T3 construct: whole entry named; also called soluble human FcRH5; Human FcRH5 (BIACORE analyte)
T3 sequence: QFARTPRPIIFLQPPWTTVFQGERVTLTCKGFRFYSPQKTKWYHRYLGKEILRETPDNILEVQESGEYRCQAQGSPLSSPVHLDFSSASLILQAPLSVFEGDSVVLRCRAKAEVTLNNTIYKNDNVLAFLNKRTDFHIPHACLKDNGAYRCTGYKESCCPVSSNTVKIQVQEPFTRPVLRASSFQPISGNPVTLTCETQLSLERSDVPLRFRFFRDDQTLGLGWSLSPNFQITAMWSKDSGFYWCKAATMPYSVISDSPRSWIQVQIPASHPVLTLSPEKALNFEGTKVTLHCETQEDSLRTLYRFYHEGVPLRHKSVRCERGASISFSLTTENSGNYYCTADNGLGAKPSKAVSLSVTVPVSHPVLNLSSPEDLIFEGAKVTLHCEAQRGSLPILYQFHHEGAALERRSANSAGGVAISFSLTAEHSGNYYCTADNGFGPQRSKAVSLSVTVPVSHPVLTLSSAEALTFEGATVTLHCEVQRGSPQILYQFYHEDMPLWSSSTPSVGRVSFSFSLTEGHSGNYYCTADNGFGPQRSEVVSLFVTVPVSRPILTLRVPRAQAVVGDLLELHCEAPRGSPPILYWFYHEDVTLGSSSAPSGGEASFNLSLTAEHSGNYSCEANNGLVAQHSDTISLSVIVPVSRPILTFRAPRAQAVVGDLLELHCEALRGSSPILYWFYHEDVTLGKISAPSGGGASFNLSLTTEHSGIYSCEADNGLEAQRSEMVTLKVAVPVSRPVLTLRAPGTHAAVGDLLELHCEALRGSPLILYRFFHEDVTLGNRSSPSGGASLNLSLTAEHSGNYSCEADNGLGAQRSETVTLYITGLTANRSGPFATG
Description: SPR (BIACORE), hIgG capture format, 1:1 binding model, monovalent affinity; same numbers as FIG. 10B, Hu FcRH5 panel. As to the method: Kinetic characterization experiments were carried out (see Table 8). In these experiments, binding of soluble FcRH5 protein fragment to purified antibodies in human TDB antibody format was analyzed at six different non-zero concentrations (a 1:3 dilution series, one concentration injected twice as a replicate). Flow rate was set at 40 μl/min and association and dissociation monitored for 600 s.

The target of test [4] is T3, human FcRH5 protein fragment (soluble). The test is described as follows: BIACORE.
The target in test [5] is T2, cynomolgus FcRH5 protein fragment …. Description: BIACORE.

B1: hu1G7.v1.4/38E4.v1 TDB (bispecific antibody, V domains shown)
VH 1: EVQLVESGPGLVKPSETLSLTCTVSGFSLTRFGVHWVRQPPGKGLEWLGVIWRGGSTDYNAAFMSRLTISKDNSKNQVSLKLSSVTAADTAVYYCSNHYYGSSDYALDNWGQGTLVTVSS
VL 1: DIQMTQSPSSLSASVGDRVTITCKASQDVRNLVVWFQQKPGKAPKLLIYSGSYRYSGVPSRFSGSGSGTDFTLTISSLQPEDFATYYCQQHYSPPYTFGQGTKVEIK
VH 2: EVQLVQSGAEVKKPGASVKVSCKASGFTFTSYYIHWVRQAPGQGLEWIGWIYPENDNTKYNEKFKDRVTITADTSTSTAYLELSSLRSEDTAVYYCARDGYSRYYFDYWGQGTLVTVSS
VL 2: DIVMTQSPDSLAVSLGERATINCKSSQSLLNSRTRKNYLAWYQQKPGQSPKLLIYWTSTRKSGVPDRFSGSGSGTDFTLTISSLQAEDVAVYYCKQSFILRTFGQGTKVEIK
notes: knob-into-hole TDB; also called 1G7.v1.4 TDB; 1G7.v1.4 (TDB format)
In test [1], B1 came in with a koff of 0.00833 s⁻¹ and a kon of 109000 M⁻¹ s⁻¹.

B2: 1G7.v85/38E4.v1 TDB (bispecific antibody, V domains shown)
VH 1: EVQLVESGPGLVKPSETLSLTCTVSGFSLTRFGVHWVRQPPGKGLEWLGVIWRGGSTDYNAAFVSRLTISKDNSKNQVSLKLSSVTAADTAVYYCSNHYYGSSDYALDNWGQGTLVTVSS
VL 1: DIQMTQSPSSLSASVGDRVTITCKASQDVRNLVVWFQQKPGKAPKLLIYSGSYRYSGVPSRFSGSGSGTDFTLTISSLQPEDFATYYCQQHYSPPYTFGQGTKVEIK
VH 2: EVQLVQSGAEVKKPGASVKVSCKASGFTFTSYYIHWVRQAPGQGLEWIGWIYPENDNTKYNEKFKDRVTITADTSTSTAYLELSSLRSEDTAVYYCARDGYSRYYFDYWGQGTLVTVSS
VL 2: DIVMTQSPDSLAVSLGERATINCKSSQSLLNSRTRKNYLAWYQQKPGQSPKLLIYWTSTRKSGVPDRFSGSGSGTDFTLTISSLQAEDVAVYYCKQSFILRTFGQGTKVEIK
notes: knob-into-hole TDB; also called 1G7.v85 TDB; 1G7.v85 (TDB format)
For B2, the Kd in test [2] turned out to be 7.82 nM; in test [3] it was 2.35 nM; in test [4] it was 2.1 nM; in test [5], 7.8 nM. Moreover, the koff in test [2] turned out to be 0.000455 s⁻¹; in test [3], 0.00104 s⁻¹. For the same molecule, the values for the kon in test [2] and in test [3] were 58200 M⁻¹ s⁻¹ and 441000 M⁻¹ s⁻¹, respectively.
